In patent US11760780B2, “Targeting dimerization of BAX to modulate BAX activity” (ALBERT EINSTEIN COLLEGE OF MEDICINE, priority 2014, dated 2023):
Positions of bridges follow the written chain, without caps; N, C: chain ends. Non-standard residues stand in square brackets, D forms with d. S5 = C=CCCC[C@](C)(N)C(=O)O

Key:
Type in all cases: biochemical
BAX [1] = biological target: T1, BAX (Homo sapiens, UniProt Q07812); assay: Liposomal permeabilization assay (ANTS/DPX release)
T1 construct: made in house; host or cells: E. coli BL21 (DE3) codon+
T1 sequence (Q07812 whole entry): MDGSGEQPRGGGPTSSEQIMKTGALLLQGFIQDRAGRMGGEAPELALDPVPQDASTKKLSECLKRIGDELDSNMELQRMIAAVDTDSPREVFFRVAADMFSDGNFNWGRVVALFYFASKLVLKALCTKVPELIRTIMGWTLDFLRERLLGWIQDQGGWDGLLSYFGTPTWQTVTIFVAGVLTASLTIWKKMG
Protocol: (§1) Liposomes were composed of the following molar percentages of lipids (Avanti Polar Lipids): phosphatidylcholine, 48%; phosphatidylethanolamine, 28%; phosphatidylinositol, 10%; dioleoyl phosphatidylserine, 10%; and tetraoleoyl cardiolipin, 4% and were loaded with ANTS/DPX (Molecular Probe) upon extrusion. BAX (400 nM) was combined with BIM SAHBA2 at the indicated concentrations in 96-well format (Corning) and then liposomes were added (10 μl from 50 mM total lipid stock) in assay buffer (10 mM HEPES, pH 7, 200 mM KCl, 5 mM MgCl2, and 0.2 mM EDTA) to a final volume of 100 μl. ANTS/DPX release was quantified based on the increase in fluorescence intensity that occurs when the ANTS fluorophore is separated from the DPX quencher upon release from the liposomes into the supernatant. Fluorescence (λex=355 nm and λem=520 nm) was measured over time at 30° C. using a Tecan Infinite M1000 plate reader. The percentage release of ANTS/DPX at 90 min was calculated as percentage release=((F−F0)/(F100−F0))×100, where F0 and F100 are baseline and maximal fluorescence, respectively. 1% Triton treatment is used to determine the maximum amount of liposomal release per assay, and this value sets the 100% value.

BAX [2] = biological target: T2, BAX (Homo sapiens, UniProt Q07812, P168G); assay: as above; settings: purified BAX P168G dimer, increasing doses, maximum release at 90 min, FIG. 14B
T2 construct: made in house; host or cells: E. coli BL21 (DE3) codon+
T2 sequence (Q07812 whole entry P168G): as the sequence (Q07812 whole entry) above, with P168G counted along it
Protocol: as §1

BAX 4MA dimer = biological target: T3, BAX 4MA dimer (Homo sapiens, UniProt Q07812, C126S/C62S/I136C/V121C); assay: BAX dimer dissociation / oligomerization by size exclusion chromatography; settings: FIG. 14A
T3 construct: made in house; host or cells: E. coli BL21 (DE3) codon+
T3 sequence (Q07812 whole entry C62S/V121C/C126S/I136C): as the sequence (Q07812 whole entry) above, with C62S, V121C, C126S, I136C counted along it
Protocol: Superdex 75 10/300 GL and 200 10/300 GL (GE Healthcare) columns were used for size exclusion chromatography of recombinant proteins and cell extracts. Recombinant protein was injected in columns equilibrated with a buffer containing 20 mM HEPES pH 7.2, 150 mM KCl, 1 mM DTT. 1 mg of cytosolic or membrane extracts was applied to a Superdex 200 10/300 GL equilibrated in buffer containing 10 mM Tris, pH 7.5, 1 mM EGTA, 200 mM Sucrose and Complete Protease Inhibitors. Fractions of 500 μl were collected, and 30 μl of each fraction was analyzed by SDS-PAGE and immunoblotting. All operations were run at 4° C. Gel filtration molecular weight markers (GE Healthcare) were also subjected to the columns to obtain a standard curve for the estimation of the molecular weight of the proteins.
BAX wild type and mutants were concentrated to ˜0.5 mM in BAX buffer (10 mM HEPES pH 7, 150 mM KCl, 1 mM DTT) and incubated at 20° C. for 1-3 days before diluting to a total volume of 250 μl and loaded onto a Superdex 75 HR 10/30 size exclusion column (GE Healthcare). These conditions allow a controlled dimerization process than aggregation due to BAX activation. Separation of monomeric and dimeric BAX was achieved using a flow rate of 0.5 ml/min at 4° C. The chromatogram traces show the monomeric and dimeric peaks at ˜11.8 and ˜10.4 ml, respectively. […]

## N-acetylated^145EIWIAQELRS5IGDS5FNAYYA^164-CONH2 (Ac-EIWIAQELR[S5]IGD[S5]FNAYYA-NH2; staple 10-14; SMILES CC[C@H](C)[C@H](NC(=O)[C@H](Cc1c[nH]c2ccccc12)NC(=O)[C@@H](NC(=O)[C@H](CCC(=O)O)NC(C)=O)[C@@H](C)CC)C(=O)N[C@@H](C)C(=O)N[C@@H](CCC(N)=O)C(=O)N[C@@H](CCC(=O)O)C(=O)N[C@@H](CC(C)C)C(=O)N[C@@H](CCCNC(=N)N)C(=O)N[C@@]1(C)CCCC=CCCC[C@@](C)(C(=O)N[C@@H](Cc2ccccc2)C(=O)N[C@@H](CC(N)=O)C(=O)N[C@@H](C)C(=O)N[C@@H](Cc2ccc(O)cc2)C(=O)N[C@@H](Cc2ccc(O)cc2)C(=O)N[C@@H](C)C(N)=O)NC(=O)[C@H](CC(=O)O)NC(=O)CNC(=O)[C@H]([C@@H](C)CC)NC1=O) [BIM SAHBA2, Hydrocarbon-stapled peptide corresponding to the BH3 domain of BIM]
BAX [1]; SEC-isolated BAX dimer, liposomes, FIG. 1D
  membrane permeabilization by BAX dimer upon addition of activator: nearly inactive
BAX [1]; SEC-isolated BAX monomer, liposomes, FIG. 1D
  membrane permeabilization by BAX monomer upon addition of activator: activated and induced membrane permeabilization
BAX [1]; purified BAX WT dimer, maximum release at 90 min, FIG. 14B
  doses required to activate BAX WT dimer versus dose that fully activates BAX WT monomer: significantly higher
BAX [2]
  activation of BAX P168G dimer compared to BAX WT dimer: more resistant to activation
BAX 4MA dimer; in the presence of reducing agent (DTT)
  activation of BAX 4MA monomer to induce BAX oligomerization: can also activate BAX 4MA monomer to induce BAX oligomerization
BAX 4MA dimer; isolated BAX 4MA dimer, high doses, Superdex 75 SEC
  competition and dissociation of BAX 4MA dimer to monomer: can compete and dissociate the dimer into monomers
